From patent US20120100142A1

Legend:
Assay in all cases: cell-based or functional assay
[1] = target: HA of influenza A/USSR/92/77 (H1N1) virus (influenza A/USSR/92/77 (H1N1) virus)
[2] = target: HA of A/Mexico/4108/09 (2009 A (H1N1)) virus (influenza A/Mexico/4108/2009 (H1N1) virus)
[3] = target: HA of influenza A/Swine/Iowa/15/30 (H1N1) virus (influenza A/Swine/Iowa/15/30 (H1N1) virus)
[4] = target: HA of influenza A/Weiss/43 (H1N1) virus (influenza A/Weiss/43 (H1N1) virus)

mAb 1F1 (antibody)
neutralizing activity, specific activity [1]: 0.88 µg/mL
HAI, specific activity of indicated mAb [2]: > 5 µg/mL
Neut Ab, specific activity of indicated mAb [2]: > 5 µg/mL
Specific HAI activity [3]: 0.04 µg/mL
neutralizing activity, specific activity [4]: 1.8 µg/mL
